Test results as given in paper PMC5609118, “Purification and Characterization of Latent Polyphenol Oxidase from Apricot (Prunus armeniaca L.)” (Journal of Agricultural and Food Chemistry, 2017).

Key:
[1] = molecular target: T1, L-PaPPO (latent polyphenol oxidase from apricot) (Prunus armeniaca, UniProt O81103); assay: inhibition of catechol oxidation, absorbance; assay type: biochemical; settings: for activity at 1000 µM: read-out: 1 mM
T1 construct: gene PPO; native, purified from fruit; latent mature form Asp102-Ser597 (496 residues), transit peptide removed; 63 kDa by SDS-PAGE; no tag
Source text: inhibition of catechol oxidation, absorbance on L-PaPPO (latent polyphenol oxidase from apricot)

[2] = molecular target: T2, A-PaPPO (activated polyphenol oxidase from apricot) (Prunus armeniaca, UniProt O81103); assay: in-gel activity staining, partially denaturing SDS-PAGE; assay type: biochemical; settings: 0.2 M catechol, 50 mM sodium citrate pH 6.5, 25 °C
T2 construct: gene PPO; native, from fruit; C-terminal domain lost during storage at 4 °C; 38 kDa by SDS-PAGE
T2 sequence (O81103 102-429): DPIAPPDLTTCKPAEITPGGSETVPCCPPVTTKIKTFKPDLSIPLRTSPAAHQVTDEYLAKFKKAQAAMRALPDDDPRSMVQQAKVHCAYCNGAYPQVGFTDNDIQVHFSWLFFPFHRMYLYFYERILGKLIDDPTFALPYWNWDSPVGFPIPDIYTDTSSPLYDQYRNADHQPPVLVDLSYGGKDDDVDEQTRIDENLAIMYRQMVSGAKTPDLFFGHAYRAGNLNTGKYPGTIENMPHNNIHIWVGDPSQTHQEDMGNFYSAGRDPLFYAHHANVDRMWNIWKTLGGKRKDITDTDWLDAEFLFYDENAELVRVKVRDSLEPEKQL

[3] = molecular target: T1, L-PaPPO (latent polyphenol oxidase from apricot); assay: quinone formation, absorbance, microplate reader; nonlinear regression; assay type: biochemical; settings: 50 mM sodium citrate pH 4.5, 25 °C, no SDS; triphenol substrate; latent enzyme activated in the assay
Source text: (§1) quinone formation, absorbance, microplate reader; nonlinear regression on L-PaPPO (latent polyphenol oxidase from apricot)

purified protein = substrate: O=C(/C=C/c1ccc(O)c(O)c1)O[C@@H]1C[C@](O)(C(=O)O)C[C@@H](O)[C@H]1O; assay: purified protein; settings: 50 mM sodium citrate pH 4.5, 25 °C, no SDS, diphenolase, latent enzyme activated in the assay
[4] = substrate: Cc1ccc(O)c(O)c1; assay: quinone formation, absorbance, microplate reader; nonlinear regression; assay type: biochemical, Prunus armeniaca; settings: 50 mM sodium citrate pH 4.5, 25 °C, no SDS, diphenolase, latent enzyme activated in the assay
Source text: as §1

[5] = substrate: Oc1ccccc1O; assay: as above; assay type: biochemical, Prunus armeniaca; settings: 50 mM sodium citrate pH 4.5, 25 °C, no SDS, diphenolase, latent enzyme activated in the assay
Source text: as §1

CCCCCCc1ccc(O)cc1O [4-hexylresorcinol]
activity at 100 µM ([1]; read-out: 0.1 mM): 34 ± 1.4%

Oc1ccccc1O [catechol]
in-gel activity staining, partially denaturing SDS-PAGE [2]: single band was detected by in-gel enzymatic activity staining with catechol as substrate

O=C(O)CCC(=O)O [succinic acid]
activity at 10000 µM ([1]; read-out: 10 mM): 89.1 ± 0.53%

Oc1cccc(O)c1O [pyrogallol]
Km [3]: 11 ± 1.5 mM

O=c1cc(CO)occ1O [kojic acid]
activity at 1000 µM [1]: 28 ± 1.1%

O=C(O)c1ccccc1 [benzoic acid]
activity at 1000 µM [1]: 41 ± 1.2%

B1: L-PaPPO (latent polyphenol oxidase from apricot) (Prunus armeniaca) (protein)
chain: DPIAPPDLTTCKPAEITPGGSETVPCCPPVTTKIKTFKPDLSIPLRTSPAAHQVTDEYLAKFKKAQAAMRALPDDDPRSMVQQAKVHCAYCNGAYPQVGFTDNDIQVHFSWLFFPFHRMYLYFYERILGKLIDDPTFALPYWNWDSPVGFPIPDIYTDTSSPLYDQYRNADHQPPVLVDLSYGGKDDDVDEQTRIDENLAIMYRQMVSGAKTPDLFFGHAYRAGNLNTGKYPGTIENMPHNNIHIWVGDPSQTHQEDMGNFYSAGRDPLFYAHHANVDRMWNIWKTLGGKRKDITDTDWLDAEFLFYDENAELVRVKVRDSLEPEKQLRYNYEPVSLPWLFTKPTARKTKNKTKAKVAATQLTSKFPATLVEVTTVEVARPKPRKRSKKEKVDEEELLIIKDIEFEGTEAVKFDVFINDDAESLSRRDKSEFAGSFVHVPQGKTTKAKTKTNLKLGITDLLEDLGAEDDSSVLVTLVPRVSNSPITIGGFKIEYSS
notes: native, purified from fruit; latent mature form Asp102-Ser597 (496 residues), transit peptide removed; 63 kDa by SDS-PAGE; no tag
Km (purified protein): 2.7 ± 0.16 mM | kcat (purified protein): 1400 s⁻¹ | kcat/Km (purified protein): 500000 M⁻¹ s⁻¹ | Km [4]: 2.0 ± 0.26 mM | kcat [4]: 700 ± 110 s⁻¹ | kcat/Km [4]: 340000 ± 70000 M⁻¹ s⁻¹ | Km [5]: 5.3 ± 0.60 mM | kcat [5]: 210 ± 30 s⁻¹ | kcat/Km [5]: 40000 ± 10000 M⁻¹ s⁻¹
